{
  "source": "patent US11690918B2",
  "about": "“Pyrrolobenzodiazepine-anti-CD22 antibody conjugates” (ADC THERAPEUTICS S.A., priority 2012, dated 2023)",
  "molecules": {"B1": {"name": "Epratuzumab-A: ADC targeted to CD22, generated by conjugating anti-CD22 antibody Epratuzumab to warhead-linker A (conjugate)", "VH": "QVQLVQSGAEVKKPGSSVKVSCKASGYTFTSYWLHWVRQAPGQGLEWIGYINPRNDYTEYNQNFKDKATITADESTNTAYMELSSLRSEDTAFYFCARRDITTFYWGQG", "VL": "DIQLTQSPSSLSASVGDRVTMSCKSSQSVLYSANHKNYLAWYQQKPGKAPKLLIYWASTRESGVPSRFSGSGSGTDFTFTISSLQPEDIATYYCHQYLSSWTFGQG"}},
  "key": {"[1]": {"system": "SU-DHL-1 cells", "assay": "In vitro cytotoxicity of ADCs, SU-DHL-1 (CD22 -ve control)", "type": "cell-based", "conditions": "4 days incubation, Alamar Blue", "method": "(§1) WSU-DLCL2 and SU-DHL-1 cells were from the Leibniz Institute DSMZ-German Collection of Microorganisms and Cell Cultures. Ramos and Daudi cells were from the American Type Culture Collection. Cell culture medium was RPMI 1640 supplemented with L-Glutamine and 10% FBS. Cells were grown at 37° C., 5% CO2, in a humidified incubator.\n(§2) The concentration and viability of cultures of suspended cells (at up to 1×10^6/ml) were determined by mixing 1:1 with Trypan blue and counting clear (live)/blue (dead) cells with a haemocytometer. The cell suspension was diluted to the required seeding density (generally 10^5/ml) and dispensed into 96-well flat bottomed plates. For Alamar blue assay, 100 μl/well was dispensed in black-well plates. […] After incubation for 4 days, cell viability was measured by either Alamar blue or MTS assay.\n(§3) AlamarBlue® (Invitrogen, catalogue number DAL1025) was dispensed (20 μl per well) into each well and incubated for 4 hours at 37° C. in the CO2-gassed incubator. Well fluorescence was measured at excitation 570 nm, emission 585 nm. Cell survival (%) was calculated from the ratio of mean fluorescence in the 4 ADC-treated wells compared to the mean fluorescence in the 4 control wells (100%).\n(§4) MTS (Promega, catalogue number G5421) was dispensed (20 μl per well) into each well and incubated for 4 hours at 37° C. in the CO2-gassed incubator. Absorbance was measured at 490 nm. […]"}, "[2]": {"system": "Ramos cells", "assay": "In vitro cytotoxicity of ADCs, Ramos", "type": "cell-based, human", "conditions": "FIG. 1, Alamar Blue", "method": "as §1, §2, §3, §4"}, "[3]": {"system": "Daudi cells", "assay": "In vitro cytotoxicity of ADCs, Daudi", "type": "cell-based", "conditions": "FIG. 1, Alamar Blue", "method": "as §1, §2, §3, §4"}, "[4]": {"system": "Ramos xenograft", "assay": "In vivo anti-tumour activity, Ramos mouse xenograft model", "conditions": "NCr nu/nu mice, single dose 1.0 mg/kg IV, FIG. 3", "method": "The CD22+(ve) human Burkitt's lymphoma-derived cell line Ramos was used in a mouse xenograft model to test the in vivo efficacy of the Epratuzumab-A ADC. As a non-CD22-binding control, the anti-HIV gp120 antibody, B12, linked to A was used in the same model.\nProcedures: • Set up CR female NCr nu/nu mice with l× Ramos-SPN tumor cells in 0% Matrigel sc in flank. • Cell Injection Volume is 0.1 mL/mouse. • Age at Start Date: 8 to 12 weeks. • Perform a pair match when tumors reach an average size of 100-150 mm^3 and begin treatment. • Body Weight: qd×5 then bi-wk to end • Caliper Measurement: bi-wk to end • Report any adverse reactions or death immediately. • Any individual animal with a single observation of >30% body weight loss or three consecutive measurements of >25% body weight loss will be euthanized. • Any group with two measurements of mean body weight loss of >20% or >10% mortality will stop dosing. The group is not euthanized and recovery is allowed. Within a group with >20% weight loss, individuals hitting the individual body weight loss endpoint will be euthanized. […] Animals are to be monitored individually. […]\nFor the calculation of group mean tumor volumes the following rule was applied: when an animal exited the study due to tumor size, the final tumor volume recorded for the animal was included with the data used to calculate the mean volume at subsequent time points. […]"}, "[5]": {"system": "WSU-DLCL2 cells", "assay": "In vitro cytotoxicity of ADCs, WSU-DLCL2", "type": "cell-based", "conditions": "FIG. 1, Alamar Blue", "method": "as §1, §2, §3, §4"}},
  "data": [
    {"molecule": "B1", "values": [
      {"measurement": "EC50 SUDHL1", "setting": "[1]", "value": "~6.776", "unit": "µg/mL"},
      {"measurement": "cytotoxicity against Ramos cells", "setting": "[2]", "value": "significant cytotoxicity"},
      {"measurement": "cytotoxicity against Daudi cells", "setting": "[3]", "value": "significant cytotoxicity"},
      {"measurement": "anti-tumor activity (mean tumour volume)", "setting": "[4]", "value": "most potent anti-tumor activity"},
      {"measurement": "cytotoxicity against WSU-DLCL2 cells", "setting": "[5]", "value": "significant cytotoxicity"}
    ]}
  ]
}
